Assay [1] deals with Flag-tagged EspM2 (EHEC O157:H7 Sakai).
Assay [2] shares this target. The source holds these as a separate data set.

On to GST-EspO1-2 W77A (natural protein), for which the percent of HeLa cells with stress fibers when transfected with EspM2 and EspO1-2 W77A expression vectors (38% with the EspM2 vector only) (% of transfected cells) in assay [1] worked out at 20.
With GST-EspO1-2 W77H (natural protein), in assay [1], the percent of HeLa cells with stress fibers when transfected with EspM2 and EspO1-2 W77H expression vectors (38% with the EspM2 vector only) (% of transfected cells) is 20.
In assay [2], “glutathione-S-transferase (GST)-tagged EspO1-2 (natural protein)” yielded a percent of HeLa cells with stress fibers when transfected with both EspM2 and EspO1-2 expression vectors (38% with the EspM2 vector only), 72 h post-transfection (% of transfected cells) of 10.

These data come from paper PMC3568036.
